Source: the supplement of paper PMC11246515
± gives the standard deviation of the averaged measurements.

Assay: total protein half-life in vivo (active degradation + dilution); higher = more stable protein
[1] = E. coli NCM3722 delta-clpP delta-lon delta-hslV, growth: N-lim chemostat, doubling time 6 h
[2] = E. coli NCM3722 delta-clpP, growth: N-lim chemostat, doubling time 6 h
[3] = E. coli NCM3722 delta-hslV, growth: N-lim chemostat, doubling time 6 h
[4] = E. coli NCM3722 delta-lon, growth: N-lim chemostat, doubling time 6 h
[5] = E. coli NCM3722 delta-smpB, growth: N-lim chemostat, doubling time 6 h
[6] = wild type E. coli NCM3722, growth: C-lim chemostat, doubling time 3 h
[7] = wild type E. coli NCM3722, growth: C-lim chemostat, doubling time 6 h
[8] = wild type E. coli NCM3722, growth: C-lim chemostat, doubling time 12 h
[9] = wild type E. coli NCM3722, growth: N-lim chemostat, doubling time 6 h
[10] = wild type E. coli NCM3722, growth: N-lim chemostat, doubling time 12 h
[11] = wild type E. coli NCM3722, growth: P-lim chemostat, doubling time 6 h
[12] = wild type E. coli NCM3722, growth: P-lim chemostat, doubling time 12 h

Sequence | total protein half-life in vivo [1] [h] | total protein half-life in vivo [2] [h] | total protein half-life in vivo [3] [h] | total protein half-life in vivo [4] [h] | total protein half-life in vivo [5] [h] | total protein half-life in vivo [6] [h] | total protein half-life in vivo [7] [h] | total protein half-life in vivo [8] [h] | total protein half-life in vivo [9] [h] | total protein half-life in vivo [10] [h] | total protein half-life in vivo [11] [h] | total protein half-life in vivo [12] [h]
MTHDNIDILVVDDDISHCTILQALLRGWGYNVALANSGRQALEQVREQVFDLVLCDVRMAEMDGIATLKEIKALNPAIPVLIMTAYSSVETAVEALKTGALDYLIKPLDFDNLQATLEKALAHTHSIDAETPAVTASQFGMVGKSPAMQHLLSEIALVAPSEATVLIHGDSGTGKELVARAIHASSARSEKPLVTLNCAALNESLLESELFGHEKGAFTGADKRREGRFVEADGGTLFLDEIGDISPMMQVRLLRAIQEREVQRVGSNQIISVDVRLIAATHRDLAAEVNAGRFRQDLYYRLNVVAIEVPSLRQRREDIPLLAGHFLQRFAERNRKAVKGFTPQAMDLLIHYDWPGNIRELENAVERAVVLLTGEYISERELPLAIASTPIPLGQSQDIQPLVEVEKEVILAALEKTGGNKTEAARQLGITRKTLLAKLSR | 5.51 ± 2.1 | 3.79 ± 0.11 | 2.98 ± 0.35 | 4.45 ± 1.4 | 2.79 ± 0.13 | 2.64 ± 0.3 | 3.94 ± 1.3 | 6.74 ± 1.1 | 2.89 | 4.34 ± 0.63 | 3.93 ± 0.27 | 7.36 ± 0.67
MTHDNKLQVEAIKRGTVIDHIPAQIGFKLLSLFKLTETDQRITIGLNLPSGEMGRKDLIKIENTFLSEDQVDQLALYAPQATVNRIDNYEVVGKSRPSLPERIDNVLVCPNSNCISHAEPVSSSFAVRKRANDIALKCKYCEKEFSHNVVLAN [P0A7F3] | 5.57 ± 0.82 | 4.6 ± 0.65 | 5.27 ± 1.8 | 4.92 ± 0.13 | 5.09 ± 0.11 | 3.33 ± 0.51 | 5.19 ± 0.14 | 9.106 ± 0.024 | 4.14 ± 0.12 | 7.28 ± 0.48 | 5.64 ± 0.66 | 12.2 ± 1
MTHKATEILTGKVMQKSVLITGCSSGIGLESALELKRQGFHVLAGCRKPDDVERMNSMGFTGVLIDLDSPESVDRAADEVIALTDNCLYGIFNNAGFGMYGPLSTISRAQMEQQFSANFFGAHQLTMRLLPAMLPHGEGRIVMTSSVMGLISTPGRGAYAASKYALEAWSDALRMELRHSGIKVSLIEPGPIRTRFTDNVNQTQSDKPVENPGIAARFTLGPEAVVDKVRHAFISEKPKMRYPVTLVTWAVMVLKRLLPGRVMDKILQG [P0AFP4] | 6.09 ± 0.25 | 6.01 ± 0.54 | 5.32 ± 1.6 | 6.02 ± 0.67 | 5.568 ± 0.03 | 3.07 ± 0.11 | 6.19 ± 0.11 | 13.6 ± 1.8 | 6.01 ± 0.4 | 11.9 ± 0.34 | 6.027 ± 0.025 | 10.4 ± 1.3
MTHLELVPVPPVAQLAGVSQHYGKTVALNNITLDIPARCMVGLIGPDGVGKSSLLSLISGARVIEQGNVMVLGGDMRDPKHRRDVCPRIAWMPQGLGKNLYHTLSVYENVDFFARLFGHDKAEREVRINELLTSTGLAPFRDRPAGKLSGGMKQKLGLCCALIHDPELLILDEPTTGVDPLSRSQFWDLIDSIRQRQSNMSVLVATAYMEEAERFDWLVAMNAGEVLATGSAEELRQQTQSATLEEAFINLLPQAQRQAHQAVVIPPYQPENAEIAIEARDLTMRFGSFVAVDHVNFRIPRGEIFGFLGSNGCGKSTTMKMLTGLLPASEGEAWLFGQPVDPKDIDTRRRVGYMSQAFSLYNELTVRQNLELHARLFHIPEAEIPARVAEMSERFKLNDVEDILPESLPLGIRQRLSLAVAVIHRPEMLILDEPTSGVDPVARDMFWQLMVDLSRQDKVTIFISTHFMNEAERCDRISLMHAGKVLASGTPQELVEKRGAASLEEAFIAYLQEAAGQSNEAEAPPVVHDTTHAPRQGFSLRRLFSYSRREALELRRDPVRSTLALMGTVILMLIMGYGISMDVENLRFAVLDRDQTVSSQAWTLNLSGSRYFIEQPPLTSYDELDRRMRAGDITVAIEIPPNFGRDIARGTPVELGVWIDGAMPSRAETVKGYVQAMHQSWLQDVASRQSTPASQSGLMNIETRYRYNPDVKSLPAIVPAVIPLLLMMIPSMLSALSVVREKELGSIINLYVTPTTRSEFLLGKQLPYIALGMLNFFLLCGLSVFVFGVPHKGSFLTLTLAALLYIIIATGMGLLISTFMKSQIAAIFGTAIITLIPATQFSGMIDPVASLEGPGRWIGEVYPTSHFLTIARGTFSKALDLTDLWQLFIPLLIAIPLVMGLSILLLKKQEG | 6.26 ± 0.63 | 5.83 ± 0.27 | 5.89 ± 0.12 | 6.1709 ± 0.0027 | 5.63 ± 0.1 | 3.42 ± 0.3 | 5.34 | 13.5 ± 0.33 | 5.19 ± 0.17 | 11.8 ± 0.13 | 6.42 ± 0.41 | 13 ± 1.4
MTIAIVIGTHGWAAEQLLKTAEMLLGEQENVGWIDFVPGENAETLIEKYNAQLAKLDTTKGVLFLVDTWGGSPFNAASRIVVDKEHYEVIAGVNIPMLVETLMARDDDPSFDELVALAVETGREGVKALKAKPVEKAAPAPAAAAPKAAPTPAKPMGPNDYMVIGLARIDDRLIHGQVATRWTKETNVSRIIVVSDEVAADTVRKTLLTQVAPPGVTAHVVDVAKMIRVYNNPKYAGERVMLLFTNPTDVERLVEGGVKITSVNVGGMAFRQGKTQVNNAVSVDEKDIEAFKKLNARGIELEVRKVSTDPKLKMMDLISKIDK | 6.3 ± 0.43 | 6.46 ± 1.2 |  | 6.12 ± 0.73 | 5.94 ± 0.051 | 3.14 ± 0.049 | 6.91 ± 0.14 | 13 ± 0.89 | 5.95 ± 0.48 | 12 ± 0.24 | 6.111 ± 0.044 | 14.3 ± 0.52
MTIKNKMLLGALLLVTSAAWAAPATAGSTNTSGISKYELSSFIADFKHFKPGDTVPEMYRTDEYNIKQWQLRNLPAPDAGTHWTYMGGAYVLISDTDGKIIKAYDGEIFYHR | 5.04 ± 0.4 | 5.973 ± 0.043 | 6.26 ± 0.2 | 5.84 ± 0.39 | 6.59 ± 0.59 | 3.09 ± 0.24 | 5.37 ± 0.16 | 8.3 ± 1.4 | 6.03 ± 0.036 | 11.5 ± 0.32 | 5.446 ± 0.049 | 13.4 ± 2.4
